Protein production data for 22 sequences are collected here from a protein production outcome set (Wang et al. 2014).

The series can be described thus: label from the status in PepcDB records.
For “MKFLTVSDDMNFLRQVNTLVAGKGDMDSVIIGEGDAKGLGSKVLYRAKKGTPFDAVSEGILKIAGNYDYIAIGSTEVGREIAGYLSFKTGFYTATEIFSLEFNGQKAHTKRFFYGGKTVIEEESDARILTVAPGVIEAKDLGTTPEIRDLEIGQSRIKITKFV”, the protein production result was “not failed”.

On to “LKVMLRPILPEDEPKHLAFDNSLSDEDRYKRYFGVRSKMTHEEMAVLTQIDYAREMAFIATAKGPDGDDITLGAVRASIDPDNTEAEFAMAVRGDHQGIGLGKLLLEKLIKYYQANDTPVLTGFTMFENRNMASLAKNLGFKVTFDME”, for which the protein production result was “failed”.

As for “MNNPKPCEWKSNELSRGYIADYKAFNFVDGEGVRCSLYVSGCPFHCEGCYNKAAQSFKYGKPYTKELEDDILKDIGHESVQGLTLLGGEPFLNTATCLSIVKRIRATYGETKDIWSWTGYTWDEMMQETADKLELLSLIDVLVDGRFEQKLFDPNLAFRGSSNQRIIDVQKSLAAGEVVLYELLEHHHHHH”, the protein production result is “failed”.

As to “MNARDNKFNTWNDSRGNYWSDYEGSDENGDGIGDSAYAVNPEAGSMDYMPLMEYLHSSPVLPTARFTSDITEGFAPLSVRFKDFSENATSRLWMFGDGNTSDSPSPLHTFFNEGEYIVSLIVSNENDSDSASVTIRALEHHHHHH”, the protein production result is “not failed”.

As to “MGHHHHHHSHGQTFAGVIRGVQSYGFFVQIEALQVEGLVHVSSPKDDWYEYRSRQQRLIGRKNRRQFGLGDRVEVEIRNVDYYRQQIDLGVLPLPEAQSETSDREP”, the protein production result is listed as “not failed”.

In the case of “MKEKENIQKIIIAMIQTVVVYFSASLTLTLITPNFKSNKDLLFVLLIHYIVFYLSDFYRDFWSRGYLEEFKMVLKYSFYYIFISSSLFFIFKNSFTTTRLSFFTFIAMNSILLYLLNSFLKYYRKYSYAKFSRDTKVVLITNKDSLSKMTFRNKYDHNYIAVCILDSSEKDCYDLKHNSLRIINKDALTSELTCLTVDQAFINIPIELFGKYQIQDIINDIEAMGVIVNVNVEALSFDNIGEKRIQTFEGYSVITYSMKFYKYSHLIAKRFLDITGAIIGLLICGIVAIFLVPQIRKDGGPAIFSQNRVGRNGRIFRFYKFRSMRVDAEQIKKDLLVHNQMTGLMFKLDDDPRITKIGKFIRKTSIDELPQFYNVLKGDMSLVGTRPPTVDEYEKYNSTQKRRLSFKPGITGLWQISGRNNITDFDEIVKLDVQYINEWSIWSDIKIILLTLKVVLLGTGAK”, the protein production entry is listed as “failed”.

For the sequence “MTTFSVIMATYNRGRHILPSIQSVLRQTCRDFELLVVGDCCTDDTADVVRALASPQIRWLNLPERGGSQAFPNNAGIEMSRGRYIAYLGHDDIWAPDHLQALADLFGHTQQPDFAVSGAIFHGPRASNFRWVTGIFDESDTALKHFFPPSSFGHRRDVADRIGKWRHPKEITAPVDADFLLRAARFGMNFVSTQRITVQKFAAGHRYLSYTGHTSDEQERMVRRMARPGYDGYLASELAKAKAAGGYMVVVHPDYERYENGQVSTQNAMAKGVVRPDLRNLRQREVIKQDNSPKALDWVPHQSGGDWVLWAGRNPRPKLLVPFKYAGKARIRLDIRHPLREALTKLKLSVNGQPAVASLGKVRQEGNLWNAQATFETALRRDDHTILELHLTRLQRPAARNGIGVGDMEVTPLGWRSIVAKGTRLLAKFRPAC”, the protein production entry is recorded as “failed”.

With “MGHHHHHHSHMSYARVRAVVMTRDDSSGGWLPLGGSGLSSVTVFKVPHQEENGCADFFIRGERLRDKMVVLECMLKKDLIYNKVTPTFHHWKIDDKKFGLTFQSPADARAFDRGIRRAIEDISQGCPESK”, the protein production entry was “not failed”.

Turning to “MARKNQKAPWEPEEEIIWVSKSEMKRDMEELQKLGEELVGLKPAVLEKFPLSEDLREAIADAQRFKNEARRRQLQRIGKLMRYEDPEPIQAALDKVRNKHSQATAALHKLEMLRDRVVEEGDKAIDDVMELYPEADRQRLRQLARQAAKEKKAGKPAKSYREIFQILKALNEEE”, the protein production result is on record as “not failed”.

As to “MKLSILKNSMNSGKAVLFIVTGIIGLLIAIGTMLLFSFYPTEQNVSQSILYITFALWTVGWVLGPIIAGGDGILRSEYFVLLPFTSYKLARALLVVAFIGLGPIVSLIAFIGLFIYAARVSLSATIVAIPAIILQLIFVVLLSKVVVSIIGETLKSRIGMEVGAMLFGFIIAFLNVGWYVLPTINKMTLSDSTLLYMFPSSWAILAVEYAIQSNWLLVLVFLIVLTILCGLLFFIWATLLMKSTETKKIEGRITTNKHRKALRFFSETKIGATITKELKSWRRDPQRGRFLRMGIWIGVFYGILVTSANISYLMPWAGIIMIVFTSMFSCNIYGFDGSALWLTLTTPDAERIDVRGRQFAWLIAVGPIAILATIIFTISSGLTFIYPWVFTVIPALLGGAAGLIMLFSVFNVVPITDPHRRGRGSVISGDDMNASKMFITTWLMMVMVMATTIPALLVVWLGTLLHVQFLQWLGVLTGICTGMFFAWWFGRIAYLKIEKSGSELLFEMKNGMKTLRDDNKKKGNRKAVELPKKKLAIVVLLVFMGIFFLIHQSVVPLIFEIFSIDDKVRLFFLPRYVPHIVRIPIIILFAILGIASLYKAILIKKKHGKEHRFIKDEM”, the protein production result is given as “failed”.

Take “MLNHPTHERLIELGLTGMAKAFEEQRRSPDLEALPFEDRIGLLVDREAAERDTRRLTTRLKIAALRQTACVEDVDLRTPRGIDRAVFAKLVEGRWIDRHENLLVTGATGLGKSWLACALGHKACRDNRSVLYHRVPRLFEALALARGDGRYARLLKSLGRAQLLILDDWGLSVLTAAERRDLLEILEDRHGRASTIVTSQLPVDTWHGAIGDPTVADAILDRLVHNAHRLQLTGESMRKRSAKTITLDGQPEH”: the protein production entry is given as “failed”.

For “MNKKILTLLVLILSISSVLMLSKSITKKSKYKIIRDYFINSNYVLVKIENKDLKFTISKPIYDKKLNNYFFKGQTTSHFLISNNVDIAINTSPYEVKQNMFFPKGLYIYNKKMISKQINNYGEIVIKHNKIILNPKEDEIENCDYGFSGFFVLIKNGKYKKNFKETRHPRTIIGTDKNNKHLFLVTIEGRGVNNSKGASLNEAIDFALSYGMTNAINLDGGGSSTLVVKSNNAPYKLNFTANIFGQERPVPFHLGIKLPN”, the protein production entry is “failed”.

For “MPVSQQCIKACGFMHPRRLQWLTFSTSPAHPVRLFLAHLYSFASRFVMTTPNPDPLHGVTLEQILRALIEHYEWSGLAERIDIRCFKSDPSIKSSLTFLRKTPWAREKVEALYVKLHRGKGW”, the protein production entry is “failed”.

With “MLYFIPTPIGNLSDISFRALELLKTCDLVFCEDTRVSKSLISLLNTKFHTDIHISKFIALHSHNEKEVLASIDLKIFEKNVAYLSDAGMPGISDPGKALVEFAQENNITYEILPGA”, the protein production result is on record as “not failed”.

As to “MNASAVETIYESTEDKAALTSVVDLVKLSDQYRQSAILHYAVADKLFDLTQTGRTPAEVAASFGMVEGKAAILLHALAALGLLTKEGDAFRNTALTERYLTTTSADYIGPIVEHQYLQWDNWPRLGEILRSEKPLAFQQESRFAHDTRARDAFNDAMVRLSQPMVDVVSELGVFARARTVIDLAGGHGTYLAQVLRRHPQLTGQIWDLPTTRDAARKTIHAHDLGGRVEFFEKNLLDARNFEGGAADVVMLNDCLHYFDAREAREVIGHAAGLVKPGGALLILTMTMNDDRVTPALSADFSLHMMVNTNHGELHPTPWIAGVVRDAGLAVGERSIGRYTLLIGQRSSGEV”, the protein production entry is on record as “not failed”.

In the case of “MSLDFHGVFPYLVSPVDAEGRVRADVMGRLCDDLIQAGVHGLTPLGSTGEFAYLGTAQREAVVRATIEAAQRRVPVVAGVASTSVADAVAQAKLYEKLGADGILAILEAYFPLKDAQIESYFRAIADAVEIPVVIYTNPQFQRSDLTLDVIARLAEHPRIRYIKDASTNTGRLLSIINRCGDALQVFSASAHIPAAVMLIGGVGWMAGPACIAPRQSVALYELCKAQRWDEALMLQRKLWRVNEAFAKFNLAACIKAGLALQGYDVGDPIPPQAALTAEERKAVEKVLAEIAEGHHHHHH”, the protein production entry is “not failed”.

For “MELISIIVPVYNGEIYIGRCLDSILEQTYQNLEIIIIDDGSSDRTGDICEKYFLEDRRIKYFYQENRGQSVARNNGVLRCTGDWIAFLDSDDVYLPYSIEVMYNIQKATNADIVLTSIGNFNNTYNTSINSQYLKEIKLYTLEVALEEMYYGKTYGVSPLAKLYPRSNLLSNPYPEGKIHEDMDTTFKLISCASKIAVCDIVTAVVYFSDNSTTRTKFNERMLYFFEAIQNNIVFINLNFPHNTSLISAVIYNEVFGGIDICGKMIDFKLYDTVDYYRKKYRKYFKTILFNNRISVKEKVKYILFISSIRYFTIVRKIYNLRLSRNGLEHHHHHH”, the protein production entry is given as “failed”.

In the case of “MSEPSLDKSSFNQPSWRNALAGLQMLFVAFGALVLMPLITGLDPSVALFTAGIGTILFQFITKQQVPLFLASSFVFIAPIAYSVQTWGIAVAMGSLFVTGLVYVLIASVVAVRGAGFLHKLMPPVVTGPIIMVIGLSLAPIAVNMAMGKAGDGSAVLFPYADSLIVSMSALITTLLVATLGKGIFRLIPIMAGVFVGYIMASVMGMVSTEAIANSEWFAIPNFVTPEFNLTAILFMLPVAIAPAIEHVGDIIAIGSVTGKDYTKSPGLHRTLLGDGLATSLASLFGGPPNTTYSEVTGAVMLTKMFNPKIMLWAAAFAIGLAFVAKFGLALQTIPAPVMGGILILLFGSIAGVGMNILIKAQVDLAEQRNLVIVSTTLVFGIGGMAIGNDDFSLTGISLCGLVAIALNAIIPQTQLEEESLVQEETIVEDLVEHAKGKEIN”, the protein production result is on record as “failed”.

With “MMRKLLTALPDGGVSALSGLQDAQTVGRISVAPSGRKFLLLTIVLFLITFATHAQVVDTWRFDNPQQQEKALSIAGQLRCPQCQNQNLLESNAPVAVSMRHQVYSMVAEGKSEAEITAWMTDRYGDFVRYNPPLNEQTLLLWALPCLLLLLVGVVVWRVRKRQHAEEGEQ”, the protein production entry is “failed”.

With “MAKEGEHSGAKEVKLTKPKISLSDLTFVIYVTTREKLSSSTISCEEIPLKKCGAELECGSNDRFHIQVENLSHMGISKSRMAGVKIECEVIYKEDSEDEAVVRIVNAERPLGTNFGWLNNDLLAPLAHRGLTAEIQLSFNSELLDKIDLQIFHRGEGRYFSQDDTLGYLQCFFPSKI”, the protein production entry was “failed”.

Take “MKRREVLQAGMALGGLAGLGRALAQGGFTLTLVHTNDTHAHLEPVELTLSGEKTPVGGVARRVALFDRVWARAKNPLFLDAGDVFQGTLYFNQYRGLADRYFMHRLRYRAMALGNHEFDLGPGPLADFLKGARFKVVSANVDASREPRLKGLFAPYAVVVVGGERVGIIGLTTPDTREISNPGPTVAFLDPYESAQKAVYELLAKGVNKIVVLSHLGYGEDLKLARRLVGVQVIVGGHSHTLLGSFPHKELSPAGPYPTVVKNPEGKDVLVVQAWEWGKVVGLLEVTFDAKGELLAYKGEALLMTPEAAPEDFFAKEALLAYAQPVMALMQQVIAEAKVDLVGERAVVRRRESNLGNLITDGMLWKTRNAGTQIALQNGGGIRASIPKGPITVGKVYEVLPFGNTLVVMDLKGKEILAALENGVSQWENTAGRFLQVSGLRYAFDLSRPAGSRVVRVEVKTEKGYVPLDLEATYRVVVNNFIANGGDGFTVLKEAQGYRVDTGFSDAESFMDYLKELKVVEAGLEGRIEVLNEPKGERPAYFAYRVPGLVGV”: the protein production result is on record as “not failed”.

“MGTTQLESVPEPKYWHLKTVLSEALDSEFSVGEILPNERDLAARFGVARATLRQALEQLELEGRLQRRRGVGTTVAPPRMGVAVGSEQHTWPGAAGDAWQPVDCTVAAPPPAVAGVLETGRNEQVHTVRRSRVTHGHPVAAELLYIPDFSVPDLSAIDAPSGAARARAVLRELQRLELEGQDRAVELGSARAEDAKELDRLPGAPVLVVTTRFFAEGRAAAVSVATYRADTCRLTFGDSGGVEIHHDPERRAS”: the protein production result is recorded as “failed”.
